The target in this experiment is T1, ubiquitin (human, UniProt P0CG48 1-76).
T1 construct: ubiquitin, human; the cut product (one ubiquitin unit) of the polyubiquitin precursor; Construct was a gift (Dr. Julie Forman-Kay); also called human ubiquitin
Kind of experiment: ITC; ubiquitin (5 mM) in the syringe, Tom1 VHS (50 uM) in the sample cell; 25 °C; 20 mM HEPES (pH 7.4), 150 mM KCl; one-site binding model; nonreducing conditions. Conditions: both partners purified. A general note: In ITC the heat of successive injections is recorded.

B1: Tom1 VHS domain (domain or fragment, human, UniProt O60784 20-152, looked up)
chain: ATDGSLQSEDWALNMEICDIINETEEGPKDALRAVKKRIVGNKNFHEVMLALTVLETCVKNCGHRFHVLVASQDFVESVLVRTILPKNNPPTIVHDKVLNLIQSWADAFRSSPDLTGVVTIYEDLRRKGLEFP
notes: Tom1 (target of Myb1), human, N-terminal VHS domain; measured average mass 15,708.01 Da, predicted 15.7 kDa; also called VHS domain of Tom1; target of Myb1 VHS domain; source: E. coli (Rosetta), GST fusion purified on glutathione beads, cleaved with thrombin, size-exclusion chromatography
As for B1, binding was put at a Kd of 695 µM.
